According to publication PMC314469, “Protein Interaction Networks by Proteome Peptide Scanning” (PLoS Biology, 2004):

Target: Sho1 SH3 (SHO1_YEAST), P40073
Assay: SPOT array

Sho1 SH3 (SHO1_YEAST), P40073, sequence (P40073 295-366): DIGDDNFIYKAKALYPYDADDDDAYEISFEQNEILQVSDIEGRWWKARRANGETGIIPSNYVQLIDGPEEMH

Binder | normalised SPOT signal, Boehringer light units (BLU); mean over the file's lines of this peptide
KKYPRKPKKNLNLG [336-349 Hypothetical ORF] | 224
KWEPSTPQRNGPIL [158-171 Hypothetical ORF] | 175
KPDPESPSKLRHYE [851-864 involved in cell wall biogenesis] | 216
LPPPRSPNRPTLSD [363-376 Hypothetical ORF] | 91.7
KFHPPEPYKGKGIY [187-200 Mitochondrial ribosomal protein MRPL6 (YmL6)] | 237
IQHPFLPRKIPIIT [408-421 mitochondrial and cytoplasmic valyl-tRNA synthetase] | 164
LSKPSKPLKEIRFD [101-114 Hypothetical ORF] | 477
LIMPIYPYRLVSTI [525-538 potential membrane glycoprotein with strong similarity to Vth2 and Pep1/Vps10] | 338
KKDPFPPPKDLLVQ [421-434 110 kDa subunit of the centromere binding factor CBF3] | 64.6
KLRPDLPVKNFVVK [641-654 subunit of assimilatory sulfite reductase] | 2110
LRSPNTPRRLRKTL [198-211;312-325;376-389;96-109 Hypothetical ORF;Y'-helicase protein 1] | 200
IMPPPKPFRHGLDS [517-530 Hypothetical ORF] | 8750
LTSPKNPIKSVTKF [569-582 translation termination factor eRF3] | 148
LMPPDSPPRMTENT [1790-1803 "RAP1-interacting factor, involved in establishment of repressed chromatin"] | 121
LPAPHRPEKYKERF [67-80 Hypothetical ORF] | 173
KNLPTIPIRLSGID [143-156 Hypothetical ORF] | 31800
LSLPRLPNKHHWPL [116-129 Hypothetical ORF] | 2570
LRDPVIPIKLAAEK [2564-2577 translational activator of GCN4 through activation of GCN2 in response to starvation] | 122
LSSPSLPPKVNATN [325-338 Guanosine diphosphatase of Golgi membrane] | 88
LPVPPPPVRPSISF [239-252 RNA polymerase II large subunit] | 172

Binder | normalised SPOT signal, Boehringer light units (BLU); mean over the file's lines of this peptide
IPTPSKPLKKRKKR [390-403 serine/threonine-rich membrane protein] | 86.1
LLPPTDPFRRKHEQ [63-76 ribosomal protein (weak similarity)] | 155
LVTPEEPAKNKSER | 102
LAPPLSPTKPSPLH [253-266 Hypothetical ORF] | 106
LSTPSAPAKINNYS [605-618 Hypothetical ORF] | 67
KRTPKIPEKDVKSD [223-236 Hypothetical ORF] | 3960
LTLPFGPVKSIWLS [189-202 glucosyltransferase] | 96.7
LDYPKAPIKLTMKS [160-173 Hypothetical ORF] | 175
KLEPENPQKPSNTH [238-251 Hypothetical ORF] | 94.4
KDHPYDPEKDSVLK [97-110 vacuolar ATPase V1 domain subunit F (14 kDa)] | 25.5
KISPSAPSKDSFTK [350-363 nuclear pore protein] | 79.6
LQIPPLPLKLLTPV [307-320 encodes the cytoplasmic trifunctional enzyme C1-tetrahydrofolate synthase] | 48.1
KNLPLNPSKKLEGK [313-326 Hypothetical ORF] | 206
KYDPDNPNKDKLGT | 159
LPPPIIPLRKYGHN [693-706 Pho85 kinase inhibitor] | 109
LPVPQLPPKLLVYP [17-30 RNA polymerase II-associated protein] | 16.2
LVQPVVPDKVFSFR [368-381 Hypothetical ORF] | 46.1
LVQPNVPEKHNMST [144-157 Hypothetical ORF] | 182
INQPSTPKKLKRKS [316-329 PLasmid Maintenance] | 141
LHGPFKPVKSSNGE [25-38 Hypothetical ORF] | 61.6

Binder | normalised SPOT signal, Boehringer light units (BLU); mean over the file's lines of this peptide
KFIPNKPYRQFNTW [339-352 gamma-aminobutyrate (GABA) transaminase (4-aminobutyrate aminotransferase)] | 60.6
MALPRTPLKTSTEE [276-289 Small regulatory subunit of Acetolactate synthase] | 1100
KSFPPPPLKPGQKT [84-97 Hypothetical ORF] | 85.4
KSSPWSPYKVEKVL [161-174 Mitotic spindle protein involved in chromosome segregation.] | 137
KKLPTGPSKKRQRK [1280-1293 transcriptional regulator] | 203
LIDPSTPDKAAKKD | 103
LRKPRAPMRNVIIT [449-462 cytochrome oxidase assembly factor] | 184
ISTPPPPPKMAIPA [390-403 " type II PI(4)P5-kinase (PIP4,5 kinase) similar to human PIP5K-II"] | 56.4
IVNPFIPRRPYSNV [859-872 Hypothetical ORF] | 530
LNSPDLPERTKLRN [445-458 Septin homolog] | 110
LSIPDLPLRIHNQT | 102
LRLPEIPPKGDFDV [1327-1340 mitohcondrial RNA polymerase] | 977
LIPPGFPTKNYPPG [185-198 Hypothetical ORF] | 80.2
LRRPIFPGRDYRHQ [218-231 cdc2+/CDC28 related kinase with positive role in conjugation] | 112
KKDPNAPKRRLSAY [21-34 11-kDa nonhistone chromosomal protein] | 152
ITLPRRPAKKIQLG [41-54 Mitochondrial ribosomal protein MRPL36 (YmL36)] | 281
LLKPETPSKRLVIR [249-262 kinesin-related protein involved in mitosis] | 290
LDDPFTPPRWLHHI | 93
KIMPPTPAKKVEFI [312-325 putative GTP-exchange protein] | 1220
